Data set [1] concerns PSA anchor ligand biotin-PEG5-cyclic(CVFAHNYDYLVC).
In data set [2] the test system is PSA capture agent biligand biotin-PEG5-cyclic(CVFAHNYDYLVC)-Tz5-Gllffk.

With “human prostate specific antigen (free PSA, Scripps Laboratories #P0725)”, the enzyme activity of PSA against the chromogenic substrate Suc-Arg-Pro-Tyr-pNA (absorbance at 405 nm) in data set [1] and in data set [2] was 3 fold throughout.

These data come from US20150093758.
